Reference: US11708423B2, “Chimeric engulfment receptor molecules and methods of use” (CERO THERAPEUTICS, INC., priority 2017, dated 2023)

How the values were obtained:
[1] = system: CER-transduced CD4+ T cells; assay: Mass cytometry (CyTOF) with viSNE marker analysis of CER-transduced CD4+ T cells; type: cell-based, human; details: CD4+ T cells after co-culture with E7 TCR CD8+ T cells and SCC152 cells
Description: CD4+ T cells were transduced with lentiviral vector comprising CER104, CER116, or CER117 nucleic acid. CER104 (SEQ ID NO:133) comprises a Tim4 binding domain, Tim4 transmembrane domain, and an engulfment signaling domain comprising a primary engulfment signaling domain comprising a TLR8 signaling domain and a secondary engulfment signaling domain comprising a DAP12 signaling domain. CER116 (SEQ ID NO:143) comprises a Tim4 binding domain, Tim4 transmembrane domain, and an engulfment signaling domain comprising a primary engulfment signaling domain comprising a TRAF6 signaling domain and a secondary engulfment signaling domain comprising a TLR8 signaling domain. CER117 (SEQ ID NO:144) comprises a Tim4 binding domain, Tim4 transmembrane domain, and an engulfment signaling domain comprising a primary engulfment signaling domain comprising a TLR8 signaling domain and a secondary engulfment signaling domain comprising a TRAF6 signaling domain. CER-transduced CD4+ T cells were co-cultured with E7 TCR-transduced CD8+ T cells and HPV+SCC152 target cells and interrogated by mass cytometry (CyTOF) with viSNE for visualization of high dimensional single cell data (FIGS. 82-84). Intact CER-transduced CD4+ T cells are shown in plots displaying tSNE1 (horizontal) and tSNE2 (vertical) axes. 27 intracellular markers were used for the viSNE analysis. Each dot represents a single cell. […] Red represents high expression and blue represents low expression for each marker. Populations of CD4^+ T cells were generated using a clustering algorithm from all 27 markers and overlaid onto the viSNE map. […] Populations of CD4^+ T cells were generated using a clustering algorithm from all 18 markers and overlaid onto the viSNE map (FIG. 83A). […] Color plots by 18 intracellular markers (CD28, CCR7, CD45RA, PD1, CD127, Perforin, CD49d, CD85j, CD38, CD27, Granzyme B, CD57, CD25, CD69, CD154, CD56, HLA-DR, and TCRγδ) show the phenotype across viSNE ‘islands’ (FIG. 83B). Red represents high expression and blue represents low expression for each marker. Highlighted region with arrow indicates cells expressing T cell activation marker CD69. Populations of CD4^+ T cells were generated using a clustering algorithm from 18 intracellular markers (CD28, CCR7, CD45RA, PD1, CD127, Perforin, CD49d, CD85j, CD38, CD27, Granzyme B, CD57, CD25, CD69, CD154, CD56, HLA-DR, and TCRγ6) and overlaid onto the viSNE map. […] Color plots by the 18 intracellular markers show the phenotype across viSNE ‘islands’ (FIG. 84B). Red represents high expression and blue represents low expression for each marker. Highlighted region with arrow indicates cells expressing the naïve T cell marker CD45RA.

ALK+A549 cells = assay: Phagocytosis of ALK inhibitor treated A549 ALK+ cells by CER T cells (fluorescent microscopy); type: cell-based; details: 12 hours, CD4 T cells
Description: An ELM4-ALK translocation was introduced into A549 cells. […] CD4 T cells are modified to express CER104 or CER117 and labeled with CELLTRACE Violet. CER117 has a polypeptide sequence set forth in SEQ ID NO:144 and comprises a Tim4 binding domain, a Tim4 transmembrane domain, and an engulfment signaling domain comprising a primary engulfment signaling domain comprising a TLR8 signaling domain and a secondary engulfment signaling domain comprising a TRAF6 signaling domain. The ALK+A549 cells were then co-cultured with CER104- or CER117-expressing CD4+ T cells or Mock-transduced (vector only) T cells for 12 hours and images were obtained by fluorescent microscopy at 40× magnification (FIGS. 62A-E). White arrows indicate exemplary phagocytic events (pH rodo red cell targets within CELLTRACE Violet labeled CD4+ T cells).
CER123- and CER126-transduced CD4+ and CD8+ T cells were labeled with CELLTRACE Violet and co-cultured with the A549 ALK-positive cells. Co-cultured cells were imaged by fluorescent microscopy at 63× magnification after 12 hours (FIGS. 63A-F). White arrows indicate exemplary phagocytic events (pHrodo red targets within CELLTRACE Violet-labeled CD4 T cells).
Phagocytosis of Alectinib-treated ALK+A549 cells by CER-expressing T cells was also quantified. […] Bar graph in FIG. 64A represents quantification of percentage phagocytosis calculated as ((number of phagocytic target events)/(total number of effector cells))*100. Events were calculated from fluorescent 3×3 stitched images at 40×resolution after 12 hours of co-culture. Bar graph in FIG. 64B represents quantification of adjusted phagocytic index calculated as (median area ratio of target events in effector cells*phagocytosis). Events calculated from fluorescent 3×3 stitched images at 40×resolution after 12 hours of co-culture.
CER21−, CER27−, CER30−, CER108−, CER110−, CER112−, CER120−, CER123−, CER124−, CER126−, CER127−, or CER104-transduced CD4+ T cells were co-cultured with Alectinib-treated A549 cells at a 1:1 ratio for 12 hours. Phagocytic events were calculated from 3×3 stitched fluorescent microscopy images at 40X resolution. […] Images were obtained after 12 hours of co-culture. Yellow triangles indicate exemplary phagocytic events (pHrodo red targets within CELLTRACE violet labeled CD4+ T cells).
A time course study of phagocytic uptake of tumor cells by CER-transduced T cells was performed. CD4+ T cells were transduced with a lentiviral vector comprising CER122 nucleic acid. Mock-transduced (vector only) CD4+ T cells were used as control. CER122-transduced T cells were labeled with CELLTRACE violet and co-cultured with pHrodo red labeled A549 ALK+ lung adenocarcinoma cells. Fluorescent microscopy images were obtained at 4, 8, and 16 hours co-culture (FIG. 72C), and % phagocytosis (FIG. 72A) and phagocytic index (FIG. 72B) were calculated.

SCC152 cells = assay: Magnitude breadth of phagocytosis by CER-transduced CD4+ T cells; type: cell-based, human; details: 8 hours co-culture with CD8/E7 TCR T cells and SCC152 cells
Method: Various CER-modified CD4+ T cells were also evaluated for breadth of response to determine whether a particular CER confers a broad phagocytic response of low magnitude (e.g., 10% engulfment in 90% of cells) or a less frequent but strong phagocytic response (e.g., 90% engulfment in 10% of cells) in the host cells. CD8+ T cells were transduced with HPV16 E7 specific TCR as described in Example 5. CD4+ T cells were transduced with lentiviral vectors comprising a CER21, CER27, CER104, CER116, or CER117 nucleic acid. Mock-transduced (vector alone) CD4+ T cell were used as control. CD4+/CER+ and CD8+/E7 TCR+ T cells were stained with CELLTRACE violet. […] HPV16 E7 TCR transduced CD8+ T cells and selected CER transduced CD4+ T cells were mixed at a 1:1 ratio and co-cultured with SCC152 cells at a 1:1 ratio for 8 hours. Phagocytosis of target SCC152 cells by CER-transduced CD4+ T cells was analyzed by fluorescence microscopy. […] The horizontal axis represents the % area of CER-transduced CD4+ T cells having engulfment or % area of […]. This measure was rarely above 40% across CER types tested. The vertical axis represents the proportion of CER-transduced CD4+ T cells that were phagocytic. For CER104, about 20% of CER104-transduced CD4+ T cells have more than 10% engulfment. For CER117-transduced CD4+ T cells, less than 10% have more than 10% engulfment.

B1: CER117: Tim4 binding and transmembrane domains, TLR8 primary and TRAF6 secondary signaling domains; SEQ ID NO:144 (protein)
chain: MSKGLLLLWLVTELWWLYLTPAASEDTIIGFLGQPVTLPCHYLSWSQSRNSMCWGKGSCPNSKCNAELLRTDGTRIISRKSTKYTLLGKVQFGEVSLTISNTNRGDSGVYCCRIEVPGWFNDVKKNVRLELRRATTTKKPTTTTRPTTTPYVTTTTPELLPTTVMTTSVLPTTTPPQTLATTAFSTAVTTCPSTTPGSFSQETTKGSAFTTESETLPASNHSQRSMMTISTDIAVLRPTGSNPGILPSTSQLTTQKTTLTTSESLQKTTKSHQINSRQTILIIACCVGFVLMVLLFLAFLHHLFYWDVWFIYNVCLAKVKGYRSLSTSQTFYDAYISYDTKDASVTDWVINELRYHLEESRDKNVLLCLEERDWDPGLAIIDNLMQSINQSKKTVFVLTKKYAKSWNFKTAFYLALQRLMDENMDVIIFILLEPVLQHSQYLRLRQRICKSSILQWPDNPKAEGLFWQTLRNVVLTENDSRYNNMYVDSIKQYMSLLNCENSCGSSQSESDCCVAMASSCSAVTKDDSVGGTASTGNLSSSFMEEIQGYDVEFDPPLESKYECPICLMALREAVQTPCGHRFCKACIIKSIRDAGHKCPVDNEILLENQLFPDNFAKREILSLMVKCPNEGCLHKMELRHLEDHQAHCEFALMDCPQCQRPFQKFHINIHILKDCPRRQVSCDNCAASMAFEDKEIHDQNCPLANVICEYCNTILIREQMPNHYDLDCPTAPIPCTFSTFGCHEKMQRNHLARHLQENTQSHMRMLA
modifications: CER117 protein
[1]
  viSNE islands expressing intracellular marker IFNγ: enrichment of islands expressing the intracellular marker IFNγ
ALK+A549 cells; 1 μM Alectinib
  phagocytosis of A549 cells: phagocytosed A549 cells
ALK+A549 cells; 1 μM Crizotinib
  phagocytosis of A549 cells: phagocytosed A549 cells
SCC152 cells
  proportion of CER-transduced CD4+ T cells that have more than 10% engulfment: less than 10%
